Stoichiometry N data for one substance are collected here from PMC2615626.

As usually defined, the stoichiometry N is the number of molecules, sites or subunits per partner or assembly.

The assay addresses Sulfolobus solfataricus 50S ribosomal subunit (S. solfataricus (endogenous in S. solfataricus cells)) (UniProt P55858). In words: co-sedimentation.
UniProt P55858, sequence (P55858 whole entry, looked up, tested part not stated): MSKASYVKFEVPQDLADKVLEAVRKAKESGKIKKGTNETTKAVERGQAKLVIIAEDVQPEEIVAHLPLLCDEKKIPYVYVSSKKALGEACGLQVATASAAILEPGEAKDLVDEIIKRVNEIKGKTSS

In turn, “recombinant Sulfolobus solfataricus aIF6, His-tagged (natural protein)” had a stoichiometry N of 1 aIF6 per 50S.
